Molecular target: Amyloid β (1–40) peptide, unlabeled, monomeric (UniProt P05067 672-711)
Experiment: cell-based or functional assay

Sequence of Amyloid β (1–40) peptide, unlabeled, monomeric (P05067 672-711): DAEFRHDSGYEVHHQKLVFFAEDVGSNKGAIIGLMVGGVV

IC50 of WT-L-PGDS for Aβ40 aggregation (ThT end-point fluorescence, 50 µM Aβ40, 37 °C): 0.98 µM
fold reduction of the primary nucleation rate constant of Aβ40 aggregation with L-PGDS (ThT curves fitted with Amylofit): 14 fold
fold reduction of the secondary nucleation rate constant of Aβ40 aggregation with L-PGDS (ThT curves fitted with Amylofit): 6 fold
B1: Human wild-type Lipocalin-type prostaglandin D synthase (L-PGDS) (natural protein, UniProt P41222 23-190, looked up)
chain: APEAQVSVQPNFQQDKFLGRWFSAGLASNSSWLREKKAALSMCKSVVAPATDGGLNLTSTFLRKNQCETRTMLLQPAGSLGSYSYRSPHWGSTYSVSVVETDYDQYALLYSQGSKGPGEDFRMATLYSRTQTPRAELKEKFTAFCKAQGFTEDTIVFLPQTDKCMTEQ
modifications: uniformly 15N labeled in the NMR titration with unlabeled Aβ40; unlabeled elsewhere

Source: paper PMC6715741, “Abundant neuroprotective chaperone Lipocalin-type prostaglandin D synthase (L-PGDS) disassembles the Amyloid-β fibrils” (Scientific Reports, 2019)
